Results on two substances are retold here after patent US6586222.

Series [1] relates to recombinant human proPR-3 secreted from Sf9 insect cells.
Series [2] has as its target recombinant human proPR-3 secreted from Sf9 insect cells (human) (UniProt P24158). Put plainly: cell-based or functional assay.

recombinant human proPR-3 secreted from Sf9 insect cells, sequence (chain, as listed by the source): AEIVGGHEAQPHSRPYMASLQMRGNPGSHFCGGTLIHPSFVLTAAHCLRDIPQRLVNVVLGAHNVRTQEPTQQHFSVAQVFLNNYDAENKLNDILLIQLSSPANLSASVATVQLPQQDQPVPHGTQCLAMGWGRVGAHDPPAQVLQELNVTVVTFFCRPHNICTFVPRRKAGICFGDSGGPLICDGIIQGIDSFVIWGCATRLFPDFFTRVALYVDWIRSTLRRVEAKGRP
recombinant human proPR-3 secreted from Sf9 insect cells (human), sequence (P24158 26-256 V119I): as the sequence (chain, as listed by the source) above

As for “bovine dipeptidyl peptidase I (Boehringer Mannheim)”, the “activation of proPR-3 (PR-3 activity on Boc-Ala-ONp after DPPI treatment)” value in series [1] is 1.25% (wt/wt) was determined the minimum amount of DPPI required to obtain complete activation of PR-3 in 3 hr. at 37 °C.

With “bovine dipeptidyl peptidase I (Boehringer Mannheim) (from UniProt Q3ZCJ8 25-463) (enzyme)”, the N-terminal sequence of PR-3 after preparative DPPI activation in series [2] is over 85%.
